Laboratory results: article doi:10.1101/2024.02.22.581614 (bioRxiv, 2024)

Target: T1, Extant nitrogenase molybdenum-iron protein alpha chain, NifD (A. vinelandii) (Azotobacter vinelandii, UniProt P07328 1-492)
T1 sequence (looked up): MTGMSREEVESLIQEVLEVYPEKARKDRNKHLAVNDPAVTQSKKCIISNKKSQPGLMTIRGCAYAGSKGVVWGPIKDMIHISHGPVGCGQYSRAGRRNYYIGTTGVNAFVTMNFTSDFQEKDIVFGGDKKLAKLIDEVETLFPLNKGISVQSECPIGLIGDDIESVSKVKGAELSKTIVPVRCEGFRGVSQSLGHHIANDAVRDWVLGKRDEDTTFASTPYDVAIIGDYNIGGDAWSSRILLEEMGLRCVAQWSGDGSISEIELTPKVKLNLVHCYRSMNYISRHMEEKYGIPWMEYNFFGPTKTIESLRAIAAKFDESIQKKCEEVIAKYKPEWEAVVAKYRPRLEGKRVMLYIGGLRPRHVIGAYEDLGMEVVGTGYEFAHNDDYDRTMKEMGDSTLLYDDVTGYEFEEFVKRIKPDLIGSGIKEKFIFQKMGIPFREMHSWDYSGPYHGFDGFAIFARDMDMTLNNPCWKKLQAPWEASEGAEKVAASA
Experiment: affinity co-purification

B1: Extant nitrogenase molybdenum-iron protein beta chain, NifK (A. vinelandii) (enzyme, Azotobacter vinelandii, UniProt P07329 1-523, looked up)
chain: MSQQVDKIKASYPLFLDQDYKDMLAKKRDGFEEKYPQDKIDEVFQWTTTKEYQELNFQREALTVNPAKACQPLGAVLCALGFEKTMPYVHGSQGCVAYFRSYFNRHFREPVSCVSDSMTEDAAVFGGQQNMKDGLQNCKATYKPDMIAVSTTCMAEVIGDDLNAFINNSKKEGFIPDEFPVPFAHTPSFVGSHVTGWDNMFEGIARYFTLKSMDDKVVGSNKKINIVPGFETYLGNFRVIKRMLSEMGVGYSLLSDPEEVLDTPADGQFRMYAGGTTQEEMKDAPNALNTVLLQPWHLEKTKKFVEGTWKHEVPKLNIPMGLDWTDEFLMKVSEISGQPIPASLTKERGRLVDMMTDSHTWLHGKRFALWGDPDFVMGLVKFLLELGCEPVHILCHNGNKRWKKAVDAILAASPYGKNATVYIGKDLWHLRSLVFTDKPDFMIGNSYGKFIQRDTLHKGKEFEVPLIRIGFPIFDRHHLHRSTTLGYEGAMQILTTLVNSILERLDEETRGMQATDYNHDLVR
stoichiometry N: 0.93 D:K
